What was measured:
[1] = molecular target: T1, APSA(200)-IL1Ra; test: ELISA, antigen coated, Fab titrated
T1 construct: Fusion protein produced in E. coli; Labelled with DIG-NHS in the MAb capture ELISA

[2] = molecular target: T2, APSA(200)-TrxA; test: SPR, biotinylated antigen on CAPture chip, Fab as analyte, 1:1 model
T2 construct: Biotinylated and immobilised on a biotin CAPture chip; also called thioredoxinA-APSA(200)

[3] = molecular target: T3, Pga-APSAAPSAAPSA (N-terminal pyroglutamyl residue (Pga), counted as P1 in the structure); test: co-crystal structure of the recombinant Fab with the peptide
T3 construct: Peptide ligand co-crystallised with the Fab of MAb 3.1; also called Pga-(APSA)3 peptide; (APSA)3 peptide
T3 peptide: APSAAPSAAPSA

[4] = molecular target: T1, APSA(200)-IL1Ra; test: ELISA, Fab titrated on coated APSA(200)-IL1Ra
[5] = molecular target: T4, PAS #1(200)-IL1Ra; test: Western blot of the fusion protein after SDS-PAGE; anti-mouse IgG Fc-AP, BCIP/NBT [D]
T4 construct: PASylated fusion protein produced in E. coli; Biotinylated for the SPR measurements with Fabs

[6] = molecular target: T5, IL1Ra (Kineret/Anakinra) (UniProt P18510 26-177); test: western blot, hybridoma supernatant 1:2000
T5 construct: Commercial drug product; also called non-PASylated protein version
T5 sequence (P18510 26-177 limits assumed): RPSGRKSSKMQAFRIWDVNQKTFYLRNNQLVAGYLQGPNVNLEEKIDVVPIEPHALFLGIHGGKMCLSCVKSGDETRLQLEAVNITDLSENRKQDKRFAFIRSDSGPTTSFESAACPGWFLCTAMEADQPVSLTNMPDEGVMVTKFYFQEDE

[7] = molecular target: T1, APSA(200)-IL1Ra; test: MAb capture ELISA, hybridoma supernatant on anti-mouse IgG Fc, DIG-labelled antigen titrated
[8] = molecular target: T1, APSA(200)-IL1Ra; test: SPR, MAb from hybridoma supernatant captured by anti-mouse antibody, antigen as analyte, bivalent analyte model
[9] = molecular target: T6, anti-Galectin-PAS(200) Fab fragment; test: SPR, MAb 1.1 covalently coupled to a CM5 chip, PASylated anti-Galectin Fab injected
T6 construct: also called PASylated humanized anti-Galectin Fab fragment; PAS-Fab
T6 sequence (chain, as listed by the source): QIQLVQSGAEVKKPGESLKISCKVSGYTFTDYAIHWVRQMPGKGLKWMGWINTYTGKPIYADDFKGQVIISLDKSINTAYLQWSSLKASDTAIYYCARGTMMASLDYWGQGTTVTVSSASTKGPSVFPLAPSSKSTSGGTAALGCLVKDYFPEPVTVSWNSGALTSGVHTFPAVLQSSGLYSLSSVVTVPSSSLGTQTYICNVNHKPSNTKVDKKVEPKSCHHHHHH

[10] = molecular target: T7, P/A #1(200)-IL1Ra; test: Western blot of the fusion protein after SDS-PAGE; anti-mouse IgG Fc-AP, BCIP/NBT [F]
T7 construct: PASylated fusion protein produced in E. coli; Biotinylated for the SPR measurements with Fabs
T7 sequence (chain, as listed by the source limits assumed): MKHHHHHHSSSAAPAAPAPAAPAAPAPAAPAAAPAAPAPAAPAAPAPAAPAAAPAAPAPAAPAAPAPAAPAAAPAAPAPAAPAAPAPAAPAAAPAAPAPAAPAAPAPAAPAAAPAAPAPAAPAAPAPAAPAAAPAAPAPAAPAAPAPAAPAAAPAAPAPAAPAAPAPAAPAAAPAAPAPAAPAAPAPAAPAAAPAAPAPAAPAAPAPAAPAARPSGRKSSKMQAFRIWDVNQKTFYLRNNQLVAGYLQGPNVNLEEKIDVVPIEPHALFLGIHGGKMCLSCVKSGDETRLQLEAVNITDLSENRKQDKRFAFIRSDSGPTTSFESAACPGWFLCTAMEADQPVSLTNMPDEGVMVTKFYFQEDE

[11] = molecular target: T8, hu4D5-PAS #1(200); test: MAb capture ELISA, hybridoma supernatant on anti-mouse IgG Fc, antigen titrated
T8 construct: Detected with anti-human kappa light chain antibody in the capture ELISA

[12] = molecular target: T4, PAS #1(200)-IL1Ra; test: SPR, MAb from hybridoma supernatant captured by anti-mouse antibody, antigen as analyte, bivalent analyte model
[13] = molecular target: T9, P/A #1 sequence; test: SPOT peptide array / hybridoma screening
T9 construct: in sentences on specificity it stands for P/A #1 polypeptides in general
T9 peptide: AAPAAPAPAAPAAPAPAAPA

[14] = molecular target: T5, IL1Ra (Kineret/Anakinra); test: western blot, hybridoma supernatant 1:2000 or purified MAb 1:200000
[15] = molecular target: T10, PASylated Thymosin alpha 1; test: sandwich ELISA in diluted rat plasma: MAb 2.1 coated as capture antibody, MAb 1.2-alkaline phosphatase as detection reagent; calibration curve
T10 construct: also called PASylated Tα1
T10 chain: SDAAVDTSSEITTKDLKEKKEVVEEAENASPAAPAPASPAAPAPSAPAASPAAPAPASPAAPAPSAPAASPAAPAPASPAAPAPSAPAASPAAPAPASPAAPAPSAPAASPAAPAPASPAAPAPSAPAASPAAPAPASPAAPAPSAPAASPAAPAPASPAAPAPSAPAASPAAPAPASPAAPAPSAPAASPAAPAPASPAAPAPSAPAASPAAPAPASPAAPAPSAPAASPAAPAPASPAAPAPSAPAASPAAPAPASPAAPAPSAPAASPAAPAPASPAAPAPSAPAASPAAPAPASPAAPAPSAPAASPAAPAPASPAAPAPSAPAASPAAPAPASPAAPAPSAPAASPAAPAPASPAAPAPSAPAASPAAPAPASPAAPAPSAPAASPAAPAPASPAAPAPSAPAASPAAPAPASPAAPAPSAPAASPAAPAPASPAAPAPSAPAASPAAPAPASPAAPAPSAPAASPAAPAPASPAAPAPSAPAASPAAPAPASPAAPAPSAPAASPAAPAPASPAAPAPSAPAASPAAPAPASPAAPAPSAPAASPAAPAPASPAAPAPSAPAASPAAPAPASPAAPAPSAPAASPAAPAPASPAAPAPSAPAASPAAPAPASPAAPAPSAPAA

[16] = molecular target: T11, hu4D5-P/A #1(200); test: MAb capture ELISA, hybridoma supernatant on anti-mouse IgG Fc, antigen titrated
T11 construct: Detected with anti-human kappa light chain antibody in the capture ELISA

[17] = molecular target: T11, hu4D5-P/A #1(200); test: MAb capture ELISA: MAb from hybridoma supernatant captured by anti-mouse IgG Fc, hu4D5-P/A#1(200) titrated (x axis: antigen concentration)
[18] = molecular target: T7, P/A #1(200)-IL1Ra; test: SPR, MAb from hybridoma supernatant captured by anti-mouse antibody, antigen as analyte, bivalent analyte model
[19] = molecular target: T12, PAS #1(600)-Leptin; test: ELISA, antigen coated, Fab titrated
T12 chain: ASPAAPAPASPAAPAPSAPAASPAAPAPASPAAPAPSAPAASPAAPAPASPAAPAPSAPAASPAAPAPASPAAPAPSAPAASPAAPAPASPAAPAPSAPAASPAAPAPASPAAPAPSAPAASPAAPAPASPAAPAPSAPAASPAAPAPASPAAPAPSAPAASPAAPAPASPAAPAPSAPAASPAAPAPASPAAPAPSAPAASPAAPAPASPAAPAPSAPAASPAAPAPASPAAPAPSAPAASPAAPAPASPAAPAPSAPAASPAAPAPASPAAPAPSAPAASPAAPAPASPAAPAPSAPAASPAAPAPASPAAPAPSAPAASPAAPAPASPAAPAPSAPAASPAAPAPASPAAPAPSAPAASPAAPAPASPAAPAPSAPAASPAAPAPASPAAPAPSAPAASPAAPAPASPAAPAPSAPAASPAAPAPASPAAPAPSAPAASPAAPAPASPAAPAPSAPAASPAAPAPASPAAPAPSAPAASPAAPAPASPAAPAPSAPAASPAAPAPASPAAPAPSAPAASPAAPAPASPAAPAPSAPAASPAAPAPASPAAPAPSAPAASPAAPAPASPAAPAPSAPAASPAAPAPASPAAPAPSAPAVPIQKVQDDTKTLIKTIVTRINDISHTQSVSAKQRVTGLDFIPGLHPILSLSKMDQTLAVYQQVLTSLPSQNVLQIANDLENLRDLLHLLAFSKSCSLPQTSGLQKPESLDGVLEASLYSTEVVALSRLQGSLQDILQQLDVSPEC

[20] = molecular target: T12, PAS #1(600)-Leptin; test: ELISA, Fab titrated on PAS#1(600)-Leptin (x axis: Fab concentration)
[21] = molecular target: T13, H1GA-PAS #1(200)-His6; test: affinity chromatography of a periplasmic extract on Fab coupled to a 1 ml HiTrap column, elution with 1 M L-prolinamide; blank-corrected A280 trace and SDS-PAGE [B]
T13 construct: also called C-terminally PASylated Anticalin H1GA-PAS #1(200)-His6
T13 chain: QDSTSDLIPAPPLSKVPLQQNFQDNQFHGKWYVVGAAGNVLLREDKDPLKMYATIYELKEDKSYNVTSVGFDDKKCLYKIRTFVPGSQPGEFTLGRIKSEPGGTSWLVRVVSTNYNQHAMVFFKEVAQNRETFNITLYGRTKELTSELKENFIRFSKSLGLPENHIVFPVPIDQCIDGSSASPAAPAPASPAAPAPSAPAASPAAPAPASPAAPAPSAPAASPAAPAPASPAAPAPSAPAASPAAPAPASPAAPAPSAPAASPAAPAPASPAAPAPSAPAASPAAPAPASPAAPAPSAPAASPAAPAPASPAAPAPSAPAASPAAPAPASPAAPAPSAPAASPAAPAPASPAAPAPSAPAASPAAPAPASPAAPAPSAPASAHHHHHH

[22] = molecular target: T4, PAS #1(200)-IL1Ra; test: SPR, biotinylated antigen on CAPture chip, Fab as analyte, 1:1 model
[23] = molecular target: T14, StrepII-eGFP-PAS #1(200); test: affinity chromatography on Fab coupled to a 1 ml HiTrap NHS column, elution with 1 M L-prolinamide; A280/A488 traces and SDS-PAGE of the fractions
T14 construct: also called StrepII-eGFP-PAS #1(200) fusion protein

[24] = molecular target: P/A#1(600)-GMCSF; test: ELISA, Fab titrated on P/A#1(600)-GMCSF
[25] = molecular target: IL1Ra-PAS#1(800); test: ELISA, Fab titrated on IL1Ra-PAS#1(800) (x axis: Fab concentration)
[26] = molecular target: T9, P/A #1 sequence; test: ELISA and SPR with Fabs
[27] = molecular target: T8, hu4D5-PAS #1(200); test: MAb capture ELISA: MAb from hybridoma supernatant captured by anti-mouse IgG Fc, hu4D5-PAS#1(200) titrated (x axis: antigen concentration)
[28] = molecular target: T7, P/A #1(200)-IL1Ra; test: Western blot of the fusion protein after SDS-PAGE; anti-mouse IgG Fc-AP, BCIP/NBT [G]

B1: Fab fragment of Anti-PA(S) MAb 3.1 (Fab, V domains shown)
VH: QVQLQQSGAELVRPGASVKLSCKALGYIFTDYEMHWVKQTPVHGLEWIGVIHPGSGNTVYNQKFQGKATLTADKSSSTAYMEVSSLTSEDSAVYYCNLWGRWGQGTTLTVSS
VL: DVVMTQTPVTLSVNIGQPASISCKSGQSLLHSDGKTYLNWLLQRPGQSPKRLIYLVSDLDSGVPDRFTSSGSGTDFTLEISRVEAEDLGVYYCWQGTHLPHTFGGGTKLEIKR
notes: also called Anti-PA(S) MAb 3.1 Fab; anti-APSA antibody fragment
Question: For B1, which Kd [1] is on record?
Answer: 1.9 nM

Question: What about the Kd [2] of the same binder?
Answer: 2.5 nM

Question: Does B1 bind [3]?
Answer: binds

Question: And the “EC50 (read off the curve)” value [4]?
Answer: ~2 nM

B2: Anti-PA(S) MAb 3.1 (antibody, V domains shown)
VH: B1 VH
VL: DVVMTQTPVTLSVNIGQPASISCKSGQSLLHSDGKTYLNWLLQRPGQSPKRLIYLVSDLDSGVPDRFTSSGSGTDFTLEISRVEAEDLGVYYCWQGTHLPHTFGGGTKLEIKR
notes: Mouse monoclonal IgG from hybridoma (culture supernatant); also called DSM ACC3367
Question: Does B2 bind [5]?
Answer: no binding (tested: hybridoma supernatant diluted 1:2000)

Question: Does B2 bind [6]?
Answer: no binding

Question: And the Kd [7]?
Answer: 0.118 nM

Question: And the Kd [8]?
Answer: 0.019 nM

B3: Anti-PA(S) MAb 1.1 (antibody, V domains shown)
VH: QVQLKESGPGLVAPSQSLSITCTVSGFSLTGYGVNWVRQPPGKGLEWLGMIWGDGITDYNSALKSRLSISKDNSKSQVFLKMNSLQTDDTARYYCARDYYGRRYYAMDYWGQGTSVTVSS
VL: DIVLTQSPASLAVSLGQRATISCRASKSVSSSGYNYMFWYQQKPGQPPKLLIYLASNLESGVPDRFWGSGSGTDFTLNIHPVEEEDAATYYCQHSRELPLTFGAGTKLELKR
notes: Mouse monoclonal IgG from hybridoma (culture supernatant); also called anti-PAS 1.1 MAb; DSM ACC3365
Question: What does the source list for B3?
Answer: binding result [9]: binds; binding result [10]: no binding (tested: hybridoma supernatant diluted 1:2000); binding result [6]: no binding; Kd [11]: 0.037 nM; Kd [12]: 1 nM; binding result [13]: no binding

B4: Anti-PA(S) MAb 2.1 (antibody, V domains shown)
VH: QVTLKESGPGILQPSQTLSLTCSFSGFSLSTYDMGVGWIRQPSGKGLEWLANIWWNDNKYYNSALKSRLTISKDTSNNQVFLKISSVDATDTATYYCAQMRDNYGVWFAFWGQGTLVTVSA
VL: DIVMSQSPSSLAVSVGEKVTMSCKSSQSLFYSNREKNYLAWYQQKPGQSPKLLIYWASTRESGVPDRFTGSGSGTDFTLTISNVKAEDLAVYYCQQYYNYPTFGAGTKLELKR
notes: Mouse monoclonal IgG from hybridoma (supernatant or protein G purified); also called DSM ACC3366
Question: Which results are given for B4?
Answer: binding result [14]: no binding; binding result [15]: binds; Kd [11]: 0.113 nM; Kd [16]: 0.17 nM; EC50 (read off the curve) [17]: ~0.08 nM; Kd [12]: 1.7 nM; Kd [18]: 0.429 nM

B5: Fab fragment of Anti-PA(S) MAb 1.2 (Fab, V domains shown)
VH: QVQLVESGGGLVQPGGSLKLSCAASGFTFSSYGMSWVRQTPDKRLELVATINSNGGSTYYLDSVKGRFTISRDKAKNTLYLQMSSLKSEDTAMYYCVRGGSIYDGYDYAMDYWGQGTSVTVSS
VL: DIVLTQSPASLAVSLGQRATISCRASQSVSTSSYSYMHWFQQKPGQPPKLLIKYASNLESGVPARFSGSGSGTDFTLNIHPVEEEDTATYYCQHSWEIPLTFGAGTKLELKR
notes: also called Anti-PA(S) MAb 1.2 Fab; anti-PAS Fab 1.2
Question: B5 was tested. Which Kd [19] did it give?
Answer: 123 nM

Question: What about the “EC50 (read off the curve)” value [20] of the same binder?
Answer: ~100 nM

Question: Does B5 bind [21]?
Answer: binds

Question: And the Kd [22]?
Answer: 3700 nM

Question: Does B5 bind [23]?
Answer: binds

Question: Does B5 bind [24]?
Answer: no binding (tested: 4000 nM)

Question: And the “EC50 (read off the curve)” value [25]?
Answer: ~200 nM

Question: Does B5 bind [26]?
Answer: no binding

B6: Anti-PA(S) MAb 1.2 (antibody, V domains shown)
VH: B5 VH
VL: B5 VL
notes: Mouse monoclonal IgG from hybridoma (culture supernatant); alkaline phosphatase conjugate in the thymosin sandwich ELISA
Question: With B6 as the binder, how does the “EC50 (read off the curve)” value [27] read?
Answer: ~0.2 nM

Question: Does B6 bind [28]?
Answer: no binding (tested: hybridoma supernatant diluted 1:2000)

Question: Does B6 bind [6]?
Answer: no binding

Question: Does B6 bind [15]?
Answer: binds

Question: What about the Kd [11] of the same binder?
Answer: 0.162 nM

Question: What about the Kd [12] of the same binder?
Answer: 44 nM

Question: Does B6 bind [13]?
Answer: no binding
